Test results taken from patent US5723127.

Target: B7 (cell surface glycoprotein, CD28-ligand B7) (Homo sapiens (Human)) (UniProt P33681)

IFN-γ production in PBMC stimulated with IL-12 alone (RIA): > 5 fold
Substance: CTLA-4Ig (chimeric recombinant soluble B7-ligand) (from UniProt P16410) (Fc fusion)
